Measured values: patent US20250163176A1, “MONOCLONAL ANTIBODY AGAINST TROP2 AND USE THEREOF” (INSTITUTE OF MEDICAL BIOTECHNOLOGY, CHINESE ACADEMY OF …, priority 2022, published 2025)
Values belong to the molecule of their own block, whether it stands above or below them.

Legend:
BxPC-3 = experiment: binding ability of antibody to tumor cells by immunofluorescence; type: cell-based; details: BxPC-3 highly expressing Trop2, immunofluorescence, FIG. 8
Method: NIH3T3, MDA-MB-231, and BXPC-3 cells were cultured on cell slides at 1×10^4 cells/well and incubated at 37° C. for 24 h. The cells after incubation were fixed with 4% paraformaldehyde for 30 min, followed by washing three times with pre-cooled PBS at 4° C., blocking with 1% BSA in PBST solution at 4° C. overnight, and adding with purified anti-Trop2 antibody at a concentration of 10 μg/mL and incubating at 4° C. overnight. An SP2/0 ascites served as a negative control. The cells were washed three times with PBST pre-cooled to 4° C., added with rhodamine-labeled goat anti-mouse IgG secondary antibody diluted 1:200 at room temperature for incubation for 1.5 h in the dark. The cells after incubation were washed three times with PBST, and one drop of 4′,6-diamidino-2-phenylindole (DAPI) (1 mg/mL) was added to each well for incubation for 10 min. Observations and photographs were taken under a fluorescence microscope. (FIG. 8)

[1] = tested on: human lung squamous cell carcinoma tumor tissues; experiment: human tumor tissue chip detection; type: binding; details: FIG. 12
Method: All tumor tissue chips used in this experiment were purchased from Shanghai Outdo Biotech Co., Ltd. The main experimental steps included: slide baking, dewaxing, antigen retrieval, endogenous peroxidase blocking, primary antibody incubation, secondary antibody incubation, diaminobenzidine (DAB) developing, hematoxylin counterstaining, and slide blocking. (FIG. 12)

Trop2 antigen [2] = target: T1, Trop2 antigen (Homo sapiens, UniProt P09758); experiment: antibody-antigen affinity analysis by Biacore method; type: binding; details: antibody coupled to CM5 chip, FIG. 6
T1 sequence (P09758 27-323): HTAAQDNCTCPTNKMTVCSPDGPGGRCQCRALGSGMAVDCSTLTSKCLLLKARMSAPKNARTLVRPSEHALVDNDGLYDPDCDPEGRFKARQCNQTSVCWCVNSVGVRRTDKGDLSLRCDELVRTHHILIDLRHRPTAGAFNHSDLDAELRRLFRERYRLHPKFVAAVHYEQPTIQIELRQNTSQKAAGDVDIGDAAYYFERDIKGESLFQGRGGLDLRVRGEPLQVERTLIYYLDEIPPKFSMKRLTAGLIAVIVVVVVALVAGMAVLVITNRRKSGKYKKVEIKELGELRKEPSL
Method: Amino of an anti-Trop2 antibody was coupled to a CM5 chip, with pH of 5.0, an antibody concentration of 10 μg/mL, sample injection time of 60 s, and flow rate of 10 μL/min, and a coupling amount of 378.6 RU. Trop2 antigen at different concentrations (0, 0.814, 1.628, 3.256, 6.512, 13.025, 26.05, and 52.1 μg/mL) was taken for flowing over the chip with a sample injection time of 60 s, flow rate of 30 μL/min, dissociation time of 600 s, and regeneration conditions of glycine-HCl, and pH 1.5 (100 s, 30 μL/min) to obtain Biacore affinity graphs and affinity constant. (FIG. 6)

[3] = tested on: tumor cell membrane that highly expresses Trop2 antigen; experiment: binding ability of antibody to tumor cells by flow cytometry; type: cell-based; details: FIG. 10
Method: BXPC-3, MDA-MB-231, and NIH 3T3 cells were separately collected at 5×10^6 cells/EP tube, washed with 100 μL of PBS containing 2% FBS pre-cooled to 4° C., and resuspended in 100 μL of PBS containing 2% FBS. Anti-Trop2 antibody at concentrations of 3, 1, 0.3, 0.1, 0.03, 0.01, and 0.003 μg/mL was separately added at 100 μL/tube, with SP2/0 ascite as a negative control. The cells were incubated at 4° C. for 1.5 h, washed with PBS containing 2% FBS, and added with 200 μL of fluorescein isothiocyanate (FITC)-labeled goat anti-mouse IgG secondary antibody (diluted 1:200) for incubation at 4° C. for 1 h in the dark. The cells were washed three times with PBS, and detected by flow cytometry. (FIG. 10)

[4] = tested on: Trop2-positive cells HCC-827; experiment: confocal immunofluorescence, endocytosis of antibody; type: cell-based, human; details: HCC-827, confocal microscopy, FIG. 9
Method: HCC-827 cells in logarithmic growth phase were prepared into a single-cell suspension, after cell counting, which was inoculated into a cell slide at 1×10^4 cells/well/200 μL, and then incubated at 37° C. for 24 h. An anti-Trop2 antibody at 10 μg/mL, 200 μL/well, was added. For the binding of antibody to the cell surface, cells were incubated after being added with antibody IMB1636 at 4° C. for 30 min. The cells were collected for washing three times with PBS, fixed with 4% paraformaldehyde (200 μL/well) for 15 min, washed three times with PBST, permeabilized with 0.2% Triton-X100 (200 μL+100 mL PBS) for 10 min, washed three times with PBST, blocked with 5% BSA at 37° C. for 30 min. The cells were added with secondary antibody (goat anti-mouse AF488) at 3 μL+1.5 mL PBST, 200 μL/well, and incubated at 37° C. for 30 min, washed five times with PBST, stained with DAPI for 15 min, washed three times with PBST, and dropwise added with an anti-fluorescence quenching agent for observation under a confocal microscope.
For the case of endocytosis of antibody, cells were added with antibody IMB1636 and incubated at 37° C. for 2 h. […] Other steps were the same as above. Co-localization of antibody IMB1636 with lysosomes was observed. (FIG. 9)

Trop2 = target: T2, Trop2 (Homo sapiens, UniProt P09758); experiment: antibody titer detected by indirect ELISA; type: binding; details: FIG. 2
T2 sequence (P09758 27-323): T1 sequence (P09758 27-323)
Text: Hybridoma cell lines for detection was continuously cultured before and after cryopreservation. The antibody titer in the cell supernatant was detected by indirect ELISA.

tumor tissues = type: in vivo, mice
Method: BXPC-3, MDA-MB-231, and NIH3T3 cells were inoculated in the axilla of mice at 6×10^4 cells/mouse. When the tumor volume reached […], an anti-Trop2 antibody was labeled using a Dylight 680 antibody kit. The anti-Trop2 antibody was injected via tail vein into mice at 20 mg/kg. In vivo imaging was performed at 30 min, 1 h, 2 h, 3 h, 4 h, 6 h, 8 h, 10 h, 12 h, 14 h, 24 h, 30 h, 36 h, 48 h, 60 h, 72 h, 84 h, 96 h, 108 h, 120 h, 132 h, 144 h, 156 h, 168 h, 192 h, 216 h, 240 h, and 264 h. (FIG. 11)

Trop2 antigen [5] = target: T1, Trop2 antigen; experiment: antibody-antigen affinity constant by ELISA; type: binding; details: indirect ELISA, FIG. 7
Method: A Trop2 antigen was diluted to three dilutions (0.1 μg/mL, 0.2 μg/mL, and 0.4 μg/mL) and coated onto ELISA plates. An anti-Trop2 monoclonal antibody was diluted to concentrations of (1, 0.2, 0.04, 0.008, 0.0016, 0.00032, 0.000064, and 0.0000128 μg/mL). An antigen-antibody reaction curve was determined using an indirect ELISA. […] The unit of Ka is M^−1. In this formula, [Ab] represents the antibody concentration corresponding to A=½Amax when the antigen concentration is [Ag]; [Ab]t represents the antibody concentration corresponding to A=½Amax when the antigen concentration is [Ag]t; [Ag] and [Ag]t represent the antigen concentrations; and n is the dilution factor between [Ag] and [Ag]t. (FIG. 7)

ECA109 = experiment: cytotoxic activity against tumor cells cultured in vitro (CCK-8); type: cell-based; details: ECA109, 48 h culture
Method: (§1) Tumor cells in the logarithmic growth phase after subculture were selected and prepared into a single-cell suspension and cell counting was performed. The cell concentration was adjusted to 3×10^3 cells/well, and the cells were inoculated into a 96-well plate with 80 μL/well. After 24 h of incubation, 20 μL of anti-Trop2-IgG, LDM, and Anti-Trop2-IgG-LDM diluted to different concentrations were added, with three parallel wells for each concentration. After 48 h of culture, 10 μL of CCK-8 reagent was added to each well in the dark, followed by shaking for 3 min and incubation in an incubator for 1 h. The 96-well plate was taken and shaken for 2 min, and the OD value at 450 nm was measured using a microplate reader. In addition to the drug-treated groups at different concentrations, three parallel wells each for the drug-free control group and the cell-free blank group were set up.

A549 = experiment: as above; type: cell-based; details: A549, 48 h culture
Method: as §1

A431 = experiment: as above; type: cell-based; details: A431, 48 h culture
Method: as §1

KYSE150 = experiment: as above; type: cell-based; details: KYSE150, 48 h culture
Method: as §1

ka (Trop2 antigen [2]): 1.057e+06 M⁻¹ s⁻¹
kd (Trop2 antigen [2]): 0.0007297 s⁻¹
titer of antibody (Trop2): 8000000
affinity constant Ka (Trop2 antigen [5]): 3.9e+10 M⁻¹
B1: antibody: mouse-derived anti-Trop2 monoclonal antibody (IgG1, Kappa) from hybridoma Y1636-1, CGMCC No. 18167; VL SEQ ID NO:1, VH SEQ ID NO:9 (antibody, V domains shown)
VH: MEWSGVFIFLLSVTADVHSQVQLQQSGAELVRPGTSVKISCKASGYTFTNYWLGWVKQRPGHGLEWIGNIFPGGGYTNYNEKFKGKAILTADTSSSTAYMQLSSLTSEDSGVYFCAREGVMDYWGQGTTLTVSS
VL: MVSTPQFLVFLLFWIPASRGDILLTQSPAILSVSPGERVSFSCRASQNIGTSIHWYQQRTNGFPRLLIKYASESISGIPSRFSGSGSGTDFTLSINSVESEDIADYYCQQSYSWPFTFGSGTKLEIK
modifications: mouse IgG1/kappa constant regions, no entry
membrane-binding activity with tumor cell membrane (BxPC-3): high membrane-binding activity
binding to human tumor tissue [1]: highly and specifically bind
affinity activity with tumor cell membrane [3]: high affinity activity
endocytosis of the antibody [4]: efficiently endocytose
targeting of tumor tissues in vivo (tumor tissues; mice, in vivo imaging, FIG. 11): highly target tumor tissues
time remaining in the tumor tissue (tumor tissues; mouse, in vivo): over 11 days

B2: LDM: antitumor antibiotic lidamycin: protein LDP (SEQ ID NO:37) with bound active enediyne (AE) chromophore of Formula I (protein)
chain: APAFSVSPASGLSDGQSVSVSVSGAAAGETYYIAQCAPVGGQDACNPATATSFTTDASGAASFSFVVRKSYTGSTPEGTPVGSVDCATAACNLGAGNSGLDLGHVALTFG
modifications: bound enediyne chromophore
IC50 (ECA109): 0.445 ± 0.034 nM
IC50 (A549): 0.169 ± 0.017 nM
IC50 (A431): 0.007 ± 0.002 nM
IC50 (KYSE150): 0.995 ± 0.008 nM
